From patent US20190248902A1 (published 2019)

T1: Human ASGR-2 (human, UniProt P07307 1-311)
T1 construct: Expressed on HEK 293 cells; cDNA GenBank NM_080913.3; also called huASGR-2; hASGR-2
T1 sequence: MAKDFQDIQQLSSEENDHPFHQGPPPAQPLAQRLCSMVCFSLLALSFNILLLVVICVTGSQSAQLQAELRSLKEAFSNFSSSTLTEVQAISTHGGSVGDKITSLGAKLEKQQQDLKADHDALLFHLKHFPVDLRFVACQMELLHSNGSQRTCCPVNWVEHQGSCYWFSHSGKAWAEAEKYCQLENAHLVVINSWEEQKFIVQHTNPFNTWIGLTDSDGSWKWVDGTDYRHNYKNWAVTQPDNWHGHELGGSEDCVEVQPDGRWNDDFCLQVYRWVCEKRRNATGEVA

T2: human ASGR-1 mutant construct H203 (human, UniProt P07306 1-291)
T2 construct: Arg/Glu scanning: non-arginine residues were changed to arginine; Transiently expressed on CHO-S cells
T2 sequence: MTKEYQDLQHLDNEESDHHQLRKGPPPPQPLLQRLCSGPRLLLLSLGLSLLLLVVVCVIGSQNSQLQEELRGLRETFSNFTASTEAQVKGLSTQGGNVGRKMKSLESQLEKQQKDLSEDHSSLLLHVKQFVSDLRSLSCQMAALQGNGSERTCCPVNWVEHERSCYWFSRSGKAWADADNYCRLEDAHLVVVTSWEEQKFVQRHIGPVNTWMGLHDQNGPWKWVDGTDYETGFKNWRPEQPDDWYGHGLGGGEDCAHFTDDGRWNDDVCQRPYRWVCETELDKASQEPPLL


Assays:
Human ASGR-2 = target: T1, Human ASGR-2; assay: FACS on transfected HEK 293 cells; binding = signal at least 2x irrelevant IgG
Description: Human ASGR-1-specific, ligand competing antibody samples were tested for binding to ASGR-1 from other species (cynomologus monkey ASGR-1, mouse ASGR-1, rat ASGR-1, dog ASGR-1, and pig ASGR-1) as well as to human ASGR-2 in FACS binding assays at normalized antibody concentrations. For cell-based assays, HEK 293 cells expressing the appropriate antigen of interest were mixed with antibody sample or controls, incubated for 1 hour at 4° C., and then washed twice. Cells with bound antibody were then incubated with Alexa Fluor® 647 IgG Fc fragment-specific detection antibody and 7-AAD viability stain for 15 minutes at 4° C., washed once and resuspended in FACS buffer. Samples were analyzed using a BD Accuri™ Flow Cytometer and an Intellicyt HyperCyt Autosampler. As a negative control, supernatants and controls were also screened against HEK 293 cells transfected with empty parental vector. […] For membrane-prep binding assays, ASGR-1 species specific membrane preps were used to coat LumAvidin® microspheres (beads) and tested for binding to selected hybridoma supernatants or controls. Briefly, ASGR-1 species specific membrane preps were incubated with streptavidin-coated LumAvidin® beads for 45 minutes in the dark at room temperature and washed twice. Beads were resuspeneded in FACS buffer containing Stabilguard®. Antigen-bound beads were then incubated with normalized antibody sample for 1 hour in the dark at room temperature, washed twice, incubated with Alexa Fluor® 488 IgG Fc fragment-specific detection antibody for 15 minutes in the dark at room temperature, washed once and finally resuspended in FACS buffer. Samples were analyzed using an Intellicyt iQue™ Screener Platform. FACS buffer supplemented with 1 mM Calcium Chloride was used in all steps. As a negative control, supernatants and controls were also screened against a non-ASGR-1 antigen membrane prep coated on the LumAvidin® beads.

[1] = target: T2, human ASGR-1 mutant construct H203; assay: FACS, transfected CHO-S cells, mAb 5 ug/ml
Method in brief: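 Transiently transfected CHO-S cells expressing wild-type or mutant hASGR-1 incubated with antibody at 5 ug/ml, 1 h at 4 °C; bound antibody detected by Alexa Fluor 647 anti-Fc plus 7-AAD, by flow cytometry. Binding normalized to expression using an unaffected antibody (65C12), then to wild type; hits defined as >3× IQR above third quartile.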

| binding result (Human ASGR-2) | FACS Binding Geomean [1] | Binder |
| --- | --- | --- |
|  | 13800 | 193E7 (antibody, V domains shown, mAb) VH: QVQLQQWGAGLLKPSETLSLTCAVYGGSFSGYFWTWIRQPPGKGLEWIGEINHSGSTNYNPSLKSRVTISVDTSKNQFSLKLSSVTAADTAVYYCARDYGADYWGQGTLVAVSA VL: DIQMTQSPSSLSASVGDRVTITCRASQGIRNDLGWYQQKPGKAPKRLIYSASSLQRGVPSRFSGSGSGTEFTLTISSLQPEDFATYYCLQHKRYPLTFGGGTKVEIK |
|  | 10200 | 176H4 (antibody, V domains shown, mAb) VH: QVQLVESGGGVVQPGRSLRLSCAASGFTFSSYGMHWVRQAPGKGLEWVAIIWYDGSYKYYADSVKGRFTISRDNSKNTLYLQMSSLRAEDTAVYYCARDAHDFWSGYFAYWGQGALVTVSS VL: DIVMTQTPLSLSVTPGQPASISCKSSQSLLHGDGKTYLYWYLQKPGQPPQLLIYEVSNRFSGVPDRFSGSGSGTDFTLKISRVEAEDVGIYYCMQSIQIPWTFGQGTRVEIK |
|  | 3500 | 197G3 (antibody, V domains shown, mAb) VH: QVQLVESGGGVVQPGRSLRLSCVASGFTFSSHGMHWVRQAPGKGLEWVAVIWYDGSNKNYADSVKGRFTISRDNSKNTLYLQMNSLRAEDTAVYYCARDPSVGYDGMDVWGQGTTVTVSS VL: DIQMTQSPSSLSASVGDRVTITCRASQGIGNHLAWFQQKPGKAPKSLIYAASSLQSGVPSKFSGSRSGTDFSLTISSLQPEDFATYYCQQYSNYPVTFGPGTKVDIK |
|  | 11000 | 194C1 (antibody, V domains shown, mAb) VH: QVQLVESGGGVVQPGRSLRLSCAASGFTFSSYGMHWVRQAPGKGLEWVAVIWYDGSNEHYADSVKGRFTISRDNSKNTLYLQMNSLRAEDTAVYYCARNRGVGYYGLDVWGQGTTVTVSS VL: DIQMTQSPSSLSASVGDRVTITCRASQGISNYLAWFQQKPGKAPKSLIYAASSLQSGVPSKFSGSGSGTDFTLTISSLQPEDFATYYCLHYLTYPLTFGGGTKVEIK |
|  | 13100 | 198G3 (antibody, V domains shown, mAb) VH: QVQLVESGGGVVQPGRSLKLSCAASGFTFSTYGMHWVRQAPGKGLEWVAVIWYDGTNKNYADSVKGRFTISRDNSKNTLCLQMNSLRAEDTAVYYCARDQGVGYDGLDVWGQGTTVTVSS VL: DIQMAQSPSSLSASVGDRVTITCRTSQGIGKYLAWFQQKPGKAPKSLLYKASSLQGGVPSKFSGSGSGTDFTLTISSLQPEDFATYYCQQYMTYPLTFGGGTKVEIK |
| no binding |  | 48B12 (antibody, V domains shown, Tested as hybridoma supernatant at normalized concentration) VH: EVQLLESGGGLVQPGGSLRLSCAASGFTFSSYAMNWVRQAPGKGLEWVSAISGRGGNTFYADSVKGRFTISRDNSKNTLYLQMNSLRAEDTAVYYCAKRETYNWNYEGFDYWGQGTLVTVSS VL: SYELTQPPSVSVSPGQTARITCSGDALPKKYAYWYQQKSGQAPVLVIYEDSKRPSGIPERFSGSSSGTMATLTISGAQVEDEADYYCNSTDSSGNHVVFGGGTKLTVL |

The next lines start with the binder.

| Binder | binding result (Human ASGR-2) | FACS Binding Geomean [1] |
| --- | --- | --- |
| 7G4 (antibody, V domains shown, Tested as hybridoma supernatant at normalized concentration) VH: QVQLVESGGGVVQPGRSLRLSCAASGFTFNNYVMHWVRQAPGKGLEWVAVIWYDGSNKYYADSVKGRFTISRDNSKNTLYLQMTSLRAEDTAVYYCAREKYSSNWYDYGMDVWGQGTTVTVSS VL: DIQMTQSPSSLSASVGDRVTITCRASQGIRNDLGWYQQRPGKAPKRLIYAASSLQSGVPSRFSGSGSGTEFTLTISSLQPEDSATYYCLHQYSYPRTFGQGTKVEIK | no binding |  |
| 218G4 (antibody, V domains shown, mAb) VH: QVQLVESGGGVVQPGRSLRLSCAASGFTFSSYGLHWVRQAPGKGLEWVAVIWYDGSNKYYADSVKGRFTISRDNSKNTLYLQMNSLRVEDTAVYYCANWYYYYYGMDVWGQGTTVTVSS VL: QSVLTQPPSVSAAPGQKVTISCSGSSSNIGNNYVSWYQQLPGTAPKLLLYDSNKRPSGIPARFSGSKSGTSATLGITGLQTGDEADYYCGTWDSSLNTVVFGGGTKLTVL |  | 7930 |
| 7E11 (antibody, V domains shown, Tested as hybridoma supernatant at normalized concentration) VH: QVQLVESGGGVVQPGRSLRLSCAASGFTFSSFGMHWVRQAPGKGLEWVAIIWHDGSNKYYADSVKGRFTISRDNSNNTLYLQMSSLRAEDTAVYYCARDLSMGGMDVWGQGTTVTVSS VL: DIQMTQSPSSLSASVGDRVTIACRASQNIISYLNWYQQKPGKAPKFLIYTASSLQSGVPSRFSGSGSGTDFTLTISSLQPEDFAIYYCQQTYSTPLTFGGGTKVEIK | no binding |  |
| 75G3 (antibody, V domains shown, mAb) VH: QVQLQQWGAGLLKPSETLSLTCAVYGGSLSGSYWSWIRQPPGKGLEWIGEINLSGSTNYNPSLKSRVTISVDTSKSQFSLTLRSVTAADTAVYYCARDYGGLDYWGQGTLVTVSS VL: EIVLTQSPGTLSLSPGERATLSCRARQNVDSSYLAWYQQKPGQAPRLLIYGASSRATGIPDRFSGSGSGTDFTLTISRLEPEDFAVFYCQQYERSPWTFGQGTKVEIK |  | 14500 |
| 191G10 (antibody, V domains shown, mAb) VH: QVQLVESGGGVVQPGRSLRLSCAASGFTFSSYGMHWVRQAPGKGLEWVAVIWYDGSNKNYADSVKGRFTISRDNSKNTLYLQMNSLRAEDTAVYYCARDQGVGYDGLDVWGQGTTVTVSS VL: DIQMTQSPSSLSASVGDRVTITCRTSQGIGKYLAWFQQKPGKAPKSLLYKVSSLQSGVPSKFSGSGSGTDFTLTISSLQPEDFATYYCQQYMTYPLTFGGGTKVEIK |  | 17000 |
| 194C10 (antibody, V domains shown, mAb) VH: QVQLQQWGAGLLKPSETLSLTCAVSGGSFRYYYWSWIRQPPGKGLEWFGEINHSGSTNYNPSLKSRVTISIDTSKNQFSLKLRSVTAADTAVYYCARDYGAFDIWGQGTMVTVSS VL: EIVLTQSPGTLSLSPGERATLSCRASPSVNSGYLAWYQQKPGQTPRLLIFGASSRATGIPDRFSASGSGADFTLTISRLEPEDFAVYFCQQYESSPWTFGQGTKVEIK |  | 13200 |
| 56E5 (antibody, V domains shown, Tested as hybridoma supernatant at normalized concentration) VH: QVQLVQSGAEVKKPGASVKVSCQASGYTFTGYHMHWVRQAPGQGLEWMGWINPNNNATNYAQKFQGRVTMTRDTSISTAYMELRRLRSDDTAVYHCARDGTSSFDYWGQGTLVTVSS VL: DIQMTQSPSSVSASVGDRVTITCRASQGIRKWLAWYQQKPGKAPKLLIYAASSLQSGVPSRFSGSGSGTDFTLTISSLQPEDFATYYCQQANSFPFTFGPGTKVDIK | no binding |  |
| 22G5 (antibody, V domains shown, Tested as hybridoma supernatant at normalized concentration) VH: EVQLLESGGGLVQPGGSLRLSCAASGFTFSSYAMNWVRQAPGMGLEWVSVISRSGGYTYYADSVKGRFTISRDNSKNTLYLQMNSLRAEDTAVYYCASRLAVAGSEAFDIWGQGTLVTVSS VL: DIQMTQSPSSLSASVGDRVTITCRASQNISSYLNWYQQKQGKAPKLLIYAASSLQNGVPSRFSGRGSGTDFTLTISSLQPEDFATYYCQQSYRTPLFTFGPGTKVDFK | no binding |  |
